From patent US6133417 come the findings set out here.

For assay [1], the target named is NADPH-cytochrome P-450 oxidoreductase purified from Sorghum bicolor (Sorghum bicolor).
Assay [2] has the same target. The source holds these as a separate data set.

In assay [1], “modified cytochrome P-450TYR, in which the 35 N-terminal amino acids are replaced by the nine N-terminal amino acids from bovine 17alpha hydroxylase, expressed in E. coli (from UniProt P05185) (enzyme)” yielded an oxime production in reconstitution experiments in dilaurylphosphatidylcholine micelles (turnover rate) (nmol oxime per nmol P-450TYR per minute) of 349.

B1: cytochrome P-450TYR from Sorghum bicolor (L.) Moench (enzyme)
chain: ATMEVEAAAATVLAAPLLSSSAILKLLLFVVTLSYLARALRRPRKSTTKCSSTTCASPPAGVGNPPLPPGPVPWPVVGNLPEMLLNKPAFRWIHQMMREMGTDIACVKLGGVHVVSITCPEIAREVLRKQDANFISRPLTFASETFSGGYRNAVLSPYGDQWKKMRRVLTSEIICPSRHAWLHDKRTDEADNLTRYVYNLATKAATGDVAVDVRHVARHYCGNVIRRLMFNRRYFGEPQADGGPGPMEVLHMDAVFTSLGLLYAFCVSDYLPWLRGLDLDGHEKIVKEANVAVNRLHDTVIDDRWRQWKSGERQEMEDFLDVLITLKDAQGNPLLTIEEVKAQSQDITFAAVDNPSNAVEWALAEMVNNPEVMAKAMEELDRVVGRERLVQESDIPKLNYVKACIREAFRLHPVAPFNVPHVALADTTIAGYRVPKGSHVILSRTGLGRNPRVWDEPLRFYPDRHLATAASDVALTENDLRFISFSTGRRGCIAASLGTAMSVMLFGRLLQGFTWSKPAGVEAVDLSESKSDTFMATPLVLHAEPRLPAHLYPSISI
The molecule B1 yielded a conversion of L-tyrosine to p-hydroxyphenylacetaldehyde oxime by the enzyme reconstituted in DLPC micelles (turn-over number) in assay [2] of 228 min⁻¹.
